# Assay results as given in the DeepSol protein solubility set.
# Assay: soluble on expression in E. coli; label from the status in PepcDB or PDB records
row,Sequence,soluble on expression in E. coli
1,MGSDKIHHHHHHMPKVEIAPSEIKIPDNVLKAKLGFGGAEEIPEEFRKTVNRAYEELLDAAKPVVLWRDFEVDGSLSFDDMRLTGELATKHLSGSKIITVFLATLGKKVDEKIEEYFRKGEDLLAFFIDGIASEMVEYALRKVDAELRMKRSNLEGSFRISPGYGDLPLSLNKKIAEIFKEEVDVNVIEDSYVLVPRKTITAFVGWREKNEKQT,soluble
2,MGSDKIHHHHHHMPLNMNRDVFITAAVTGSGGTQDKSPHVPRSPKEIAASAIEAARAGAAVVHCHVRDPETGAPSRRLELYRELTDRIRDSEVDVVLNLTAGMGGDIVFGSTEAPLPVNEAATDMIGATERMAHIAECLPEICTLDCGTMNFAEADYVMTNTPGMLRAMGQMMTDLGVKPEIEAFDTGHLWFAKQLVKEGILEPNALVQLCMGVPWGAPNDLNTFMAMVNNVPSDWTWSAFSLGRDQMPFAAASVLAGGNVRVGLEDNLFLDKGVLATNAQLVERAVSVIEGMGAKIVGPDAVREKLGLTKRAPVAA,not soluble
3,MGSDKIHHHHHHMPPLNALRAFDAVARHGSFAGAAAELHVTHWAVGKQIRLLEDWFGLPLFDRRPRGVVLTDEGAVLLNDVSHAFEHLGTAVVRLRHNTLAHRISGVVRVNVPMSFAFCWLLPRLADFHSRYPDIDVRVSTTSRKLRYVADAFDIGVRSGPEQGAGVVSRPLMPDLRVPACNPALLRQHPIQSVADLRHHTLLHSATTRSAWSHWLREAGAADLRAARHVEFDHVNLQLGAAIEGLGVALASLPLIGRDLAEGRLVCPIASPVWRADDYTLVTNADRADDAAVSAFEQWMESMASQEAG,not soluble
4,MGSDKIHHHHHHMPRDTLVSHRQSVDIGGKFSGKTVLTLDVYGTLIDWERGICDALGPILRGHGLSTSEDEMLERYATHESALEAGPYLTYREILEESLLRIAADLGFTPSEYELDIFSHSVGDWPAFADSRAALVALQKRFRLAVITNGDDEFFSLSNKHLKIQFDYVVTAQQARSYKPSLNNFHVALGRIDAPRSQILHVAQSLYHDHVPAQALGLQTVWINRRRGKPGFGAVPKAEAVPDAEFDDMRAFADAMLER,not soluble
5,MGSDKIHHHHHHMPSERASSFDIMLWVLSGCSELLYGTQALPLTGKVDRIFGPAREPRDVRVLNYLELADRLDRSGIGTAVDHQRAALSETDIEVETTPWQEGHPAWALGGNIAFNDPMFREFDIAHCNMIGPGSVAVARYAAQADIPLVLHAHVTREDFRDSFRGSNLIAPVLGRYLRWFYSQADLVLCPSEYTKGILESYPVDAPIRPMTNGVDIDALAGHEDMREDYRRRYDLDGMVVFAVGNVFERKGLTTFCELAQETEHDFAWFGPYDAGPQASKTVSRWVNNPPENVTFTGWVEDIRGAFGAGDVYLFPTKAENQGIAVLEAMACGKAVVLSDIPVFREYYEDGHDCLICADEAEFREALERLAENPDLRERLGENARETAREHSLDRVSRRLVETYEELA,not soluble
6,MGSDKIHHHHHHMPSKISQLVTGQKIEVQLSSSNVPARFYSEFIGAVNERWVIVNMPDARKYNDMRDLLQEKTPVIVRFVLENESGEICAFRSEISYVISHPTKMLFIMWPNQIEHRIIRKGRRFDAFLPASVSGQSVKGEENTFRGHVLDVSESGCRLKHEKPEGKIDELWENGSKIVLKIEQKNNGDLTLKAIVRQVKQVDDQLELGVQFMGNQKDEVNSLFSGSLVDIDELSRLESST,not soluble
7,MGSDKIHHHHHHMPTGLDCTQTMLYRRFGKTNLHLSVFSLGTMRYLADSENVQQTIATALALGINHIETARGYGKSEEYFGQAIKVGLSVARSQLYVTTKIPPTSDADSMRRYIDESLERLNLDYLDCLGIHGLNTWEHLEWVQAKGGCMKAVEEAINDGRIRHVGFSTHGSLEVIQAAINTDFFEFVNLHYYYFFQRNAPAIKLASEKDMGIFIISPADKGGKLYTAPQTLQDLCQPLSPLELNYRFLLSDQRITTLSVGPATPEELVEPLQVADSCGELTSAEITIFQRLQNHQESVLETDKCSQCYACLPCPENINIPEVLRLRNLAVAYNMTDYGQYRYGMFENAGHWFPGMKANRCTECGDCLPRCPEKLDIPNLLEDAHNRLNGRAGRRLWG,not soluble
8,MGSDKIHHHHHHMPTLKEKIIQESQRLGIDKIGFTHAEPFIELEDSLHEQRERGYNSGFEHQNVEERIYPEKTFEHPKSIISIALAYPTKAQEKMPRDEKRGQFARASWGIDYHHILQDRLQKLIAFIEEQAATEAEKEHWRFRPQVDTGEYVDTAVAQRAGLGFIGKNGLLITEEFGSFVYLGEVTTNIQFEPDEPVPNGCGDCTRCITGCPTGALLGDGRMNAQKCLSYQTQTKGMMPEDYRKKMRNVIYGCDICQLVCPYNKGKDFHFHEEMEPKIEEVYPKLAPLLTISNKEFKQQFGHLAGSWRGKKPLQRNALIALANLGGREAIPQIILCLNDQRPVIRGTAAWSLGQLAKREPEQSLEALNYLLSVETEEEVIEEAQKAIHLLTSKKGSRSTE,not soluble
9,MGSDKIHHHHHHMPVTAIFSPDTPAMGIGWRHPHYAGLLQTGPALDFIEVHSENFFAPGGAARAVLRQGREHYPVSLHGTGLSLGSACGVDEWHLAQLAELVQEIDPVRVSDHASFARGHLPGTDAPVHAADLLPVPFTREALAVMCSNVQRVQERLKRPIAVENLSAYLDWRAADMRETEFLAALAQRTGCSLLVDVNNLYVNAQNAWLRGALNSAPGDADAALASCRDWIDQIAASPVAELHLAGHAHLGDIVIDDHGSRVCAEVWQLYRHALARLGPVPTLIEWDTDVPALSVLLDEVARARGIAQGRPATRQPSAEARP,not soluble
10,MGSDKIHHHHHHMQFGNHPYYANELMLSLDEASGMVGEDARVAEFIRPLYGSRESISGTPRTCLWITDENLALAQEIPAVWARVEKVRKDRKTKTKDVQAKKLVETPWRFRDQYEAESSLLVVPIVSSENRPYLPVVLLSKEAIVHNKAFALYDAPLWNFALIVSKMHLVWVAAVCVRLEMRYSYSNTLGWNTFPVPTLTEQNKADLTRCAEDILLARESHYPATIADLYGPDNMPDDLLRAHERNDEVLERIYIGRRFRNDTERLEKLFDLYTKMTAGQGKPKKKAKK,not soluble
11,MGSDKIHHHHHHMQIKALIYFDELVRTRSMRAAAERLNVQPTAFARQIDQLEHYFGTVLIERSSRGIQLTAAGELLAARAGKTLRELNHVHQLIDDLQGLKRGHVTIHANGATVANLLAPALADFSLVYPNIRFSVTISSAGQAMEALSSAKADMAVTLFSEPDPGIRVRARAQIVYDVIAASHHPAAHLAEMTVTELARFPLAVPDGSFGARRAFDAWFSKAGLELDPVFVTGSLEMQRELVLRGAALTLLPAQTVARERRSGELVVIPVAGGAGIRTPIDLCVAGDRQLSFAASKLVDAVERFMREQMGK,not soluble
12,MGSDKIHHHHHHMQIVPLHSSHYPHIASVFHQAVRAAAGKGYTQAQCEAWSRGVRDRRYWRSRLGRSLVLVALNVDEVVGFIDCELEHPDKGYIGHLYVAPTHQGRGIGGKLLDALIRQAPALGIGSLTTDASLHSEPLFAAKGFSNVGRYFQQKSGQVLPGFAMTLPLPFYIDRMQGSDLASIARLFHEAVQGASEYYSEAERHAWSAALRDEATWQGKLAPSKVWVARKDSGIMGFINLLPKSIGEAEIDCLFTSPVLTRCGVATSLYWVLEQQARRDGVRRLSVEASYFARPFFQSRGFTELSRNEHPRHGQILVNFSMEKWLSRPEGG,not soluble
13,MGSDKIHHHHHHMQLITSLDIRNSEYLSKDRLISYHHQLRLIFSLGNQVKNVLEIGIFNSLLTDILKNNGYNVTTADVDPNLKPEMILDLTTDFSLPKDKFDAIVLFQVLEHFPYEQSEEALKKLAEATKKFLVISIPYCTQYLSFQIKSSFSGRPRYLLLSVPKFWSTKPVCDEHYWEMGLKGYPKKRILNSVANAGLTVKQEFIDPSYPYHYFLVLEKTNNI,not soluble
14,MGSDKIHHHHHHMQLPFIAVDYVISVGLCAASTNPSQDKRIKKITVLAVSGKGDLPISFIENQALLDEAAMLTCMAYVDLNPIRAQLADTPEQSDHTSIQLRIRAALKGEQPKNLLPFIVNERDNQPNGIAFLLSDYLELVDDTGRIIRSDKRGAISENSAKLLARLNIPHDNWLKLTTEFGKLFRGPVGTLQELTDYCEHLEKRRRHFAKCCLHFHSN,not soluble
15,MGSDKIHHHHHHMQNQPPFIINSTYHREESKDIEFKSIASQHPVKKIVNHAEEYITGFLNALVEGQLYIGIDDAGKILGVKLSRSERDEIQKIIPNKLRNTDPIVSPSLYDIAFYNVLNEEQKDIEDLFVVNISVLGVDESQFYRTSSREYFLYKTTGGSTYLKTGTDCIKLNTTEIAQEIQKRKQKYLKQELDNIDDKLLQNPDNRSLLKEKANIAKLMGDIEKMDESYKRLINLNPNNSRTRVDYASAHKSIGDLEGALDILEDALKVDGDNLSILKTKGEILLGSDSSDKVKEAFQTYETALKLNPEDYTIITQIGIALRKLGKYKESIKVFNLALAKSPHYRAAKYEKRITYHKMFEGGIRI,not soluble
16,MGSDKIHHHHHHMQPLAQTLDRIRTISEYLKPEFGIPADGNWVSVADDFVSGSPWLTSMIAAEQTRLRTTSAAIIGSTLLQNYQWPIIPTVVACYLFEQRVPDLAPANTRVHFTAEHQADALALLGGRFSALPDDPAAEHPDATIVPDRAALRDAMRTGIESHFAVVIEHICAALGCKPRGLWLNVADAVANALIWLAQQHAAFDPTQIEAEVEAVIRVPGSPLNNRQVGLIQLSYGENRQLFLRRATCCYWYKTEGGEYCLTCPHRTAEDRQARLLAYMAQKYTQQQQLVQEEVTA,not soluble
17,MGSDKIHHHHHHMQQSQTIYLMGTVIDVFVDHEESEKILEEVHQRLITYEQRFSANDSTSELMAVNQQAGQKPVSVHPELYQLIALGKKHSCDPASHLNVTIGPLVQTWRIGFKDARVPSEEEIKACLKKINPEKIHLNPLKQTVFLEEEGMKLDLGALAKGYIADLLIAYLKEVHVTSALINLGGNIVTLGPSTHQNKKWRIGIRNPQESRETISLLVEVANQSVVTSGIYERSLTEAGRVYHHLLDPTTGYPLETEMASLTIISDASVDGEIWTTRLFGYPIPEALEILNQLDGIEGVIITQDQQILYSSGLADTLHIIHS,not soluble
18,MGSDKIHHHHHHMQSGMYVSLSSQRALDKRLTTIADNMANVNTVGFRGTEVKFDEVVSRTGNDQNAKIAFVSQGNDYLNTQSGEMLQTGGTLDFAVKGDAWFSIDTPAGPALTRDGRFTMTSTGQLVSVRGYSVLDAGGGPIQLDPNGGEPHVGADGTINQNGRQISQIGLFTADISKGYLRTENSGVITTDRPQAVVDDATIGVMQGYVEQSNVNGISQMTQLIQVSRAFESISASMSQTENSMSETIKTLGGSK,not soluble
19,MGSDKIHHHHHHMQSLHGNCLIAYARHKYILTMVNGEYRYFNGGDLVFADASQIRVDKCVENFVFVSRDTLSLFLPMLKEEALNLHAHKKVSSLLVHHCSRDIPVFQEVAQLSQNKNLRYAEMLRKRALIFALLSVFLEDEHFIPLLLNVLQPNMRTRVCTVINNNIAHEWTLARIASELLMSPSLLKKKLREEETSYSQLLTECRMQRALQLIVIHGFSIKRVAVSCGYHSVSYFIYVFRNYYGMTPTEYQERSAQRLSNRDSAASIVAQGNFYGTDRSAEGIRL,not soluble
20,MGSDKIHHHHHHMQTNDKVLKAFHSVKDVGSERSIVELGWLEVVSVKPPKIVVRLNLPNFAIAQRGQMAVDIRESIKSLEDIEEVQIEIGDSSPSKESPIGQAGHGSQSQGLTAIPKVKNVIAISSGKGGVGKSTVAVNLACALSQKGFKVGLLDADIYGPNTPYMLGVSEITPEVSGSGAEQKIIPIETCGIGMVSMGLLIDQNQPVIWRGPMLNGIIRQFLYQASWGERDFLIVDLPPGTGDAQLSLAQAVPMAGVIIVTTPQNVSLQDSRRGLAMFKQMNIPVLGVIENMTYFIPPDQPQKSYKIFGSGGGSQLAKENNVPLLSQIPIETDTFSGTGKDLPVVHTSRDSITAKVFLELAGTLCNALSVKQ,not soluble
